Test in all cases: cell-based or functional assay
Assay [1] deals with T1, recombinant NS3 protease with the NS4A peptide cofactor … (molar ratio enzyme:cofactor 1:100) (hepatitis C virus genotype 1b).
The target in assay [2] is T1, recombinant NS3 protease with the NS4A …. This is another data set of the same source.
Assay [3] shares this target. The source holds these as a separate data set.
For assay [4] the target is unchanged. The source holds these as a separate data set.

Like-named read-outs stand apart in the source and are kept apart here. *1 amine or outer side, *2 acyl side, *3 side chain or, on linkers, in order; H or OH if unused. Primed or numbered codes have the meaning given here. Where no end group is shown, it is not given here. [ ]: non-standard residue; d: D form. Pro((4-tert-butyl-phenyl)-methoxy) = Pro(4-R13), R13 = (4-tert-butyl-phenyl)-methoxy; Hyp(4-Bn) = 4(R)-benzyloxyproline, O=C([C@@H]1C[C@@H](OCc2ccccc2)CN1[*:1])[*:2]; Pro(1-NpCH2O)″ = Pro(4-R13), R13 = naphthalen-1-ylmethoxy; Pro(2-NpCH2O)″ = Pro(4-R13), R13 = naphthalen-2-ylmethoxy; Glutaryl = O=C(CCCC(=O)[*:2])[*:1]; Pro(4-OBn) = Pro(4-R13), R13 = OBn; Pro(O-Bn) = Pro(4-R13), R13 = O-Bn; NMeI = CC[C@H](C)[C@H](NC)C(=O)O; Pro(Bn) = Pro(4-R13), R13 = Bn; AllylGly = C=CC[C@H](N)C(=O)O; Chg = N[C@H](C(=O)O)C1CCCCC1; Suc = O=C(CCC(=O)[*:2])[*:1]; Tle = CC(C)(C)[C@H](N)C(=O)O; code B = not defined here; Ac5c = NC1(C(=O)O)CCCC1; Acca = not defined here; Nva = CCC[C@H](N)C(=O)O; Abu = CC[C@H](N)C(=O)O; Acc = not defined here; Ac3c = NC1(C(=O)O)CC1

In the case of {HOOC‑CH2CH2‑N(Me)C(O)‑CH2‑CH(cyclohexyl)‑C(O)}-Val-[Pro(4-(1-NpCH2O))]-[Ac3c] [Compound 405 (Table 4): B HOOC-CH2CH2-N(Me)C(O)-; R4 cyclohexyl; P3 Val; R13 1-NpCH2O; P1 Acca], the IC50 (as a rule, the concentration that inhibits the measured activity by half) in assay [1] came out at 1.6 µM.
For Ac-DDIVP[AllylGly] [Compound 124 (Table 1): Ac-Asp-Asp-Ile-Val-Pro-AlGly], the IC50 in assay [2] turned out to be 210 µM.
Turning to Ac-D[dE]IV[Pro(4-OBn)]C [Compound 260 (Table 2): Ac-Asp-D-Glu-Ile-Val-Pro(O-Bn)-Cys], the IC50 in assay [3] worked out at 0.18 µM.
Consider Ac-DDIV[Hyp(4-Bn)]C [Compound 121 (Table 1): Ac-Asp-Asp-Ile-Val-Hyp(4-Bn)-Cys], for which, in assay [2], the IC50 amounted to 1.7 µM.
Turning to Suc-[NMeI]V[Pro(4-(1-NpCH2O))][Nva] [Compound 220 (Table 2): DAD-N(Me)Ile-Val-Pro(1-NpCH2O)-Nva], the IC50 in assay [3] amounted to 31 µM.
With {EtOOC‑CH‑N(Me)2‑C(O)‑CH2‑CH(cyclohexyl)‑C(O)}-Val-[Pro(4-(1-NpCH2O))]-[Ac3c] [Compound 410 (Table 4): B EtOOC-CH-N(Me)2-C(O)-; R4 cyclohexyl; P3 Val; R13 1-NpCH2O; P1 Acca], the IC50 in assay [1] is 32 µM.

B1: Compound 224 (Table 2): B-Ile-Val-Pro(1-NpCH2O)-Nva, B drawn (peptide)
peptide: {code B}-IV[Pro(4-(1-NpCH2O))][Nva]
modifications: reading uncertain; also: further groups not given here, printed as B-Ile-Val-Pro(1-NpCH2O)-Nva
For the molecule B1, the IC50 in assay [3] came to 56 µM.
On the same count and under the same terms, in the case of Suc-IV[Pro(4-(1-NpCH2O))][Nva] [Compound 221 (Table 2): DAD-Ile-Val-Pro(1-NpCH2O)-Nva] it was 22 µM.
Ac-DDIVP[Ac5c] [Compound 125 (Table 1): Ac-Asp-Asp-Ile-Val-Pro-Acpe]: the IC50 in assay [2] was determined as 210 µM.
For the molecule Ac-DE[Chg]V[Glu(OBn)][Acca] (reading uncertain; also: printed as Ac-Asp-Glu-Chg-Val-Glu(OBn)-Acca) [Compound 133 (Table 1): Ac-Asp-Glu-Chg-Val-Glu(OBn)-Acca], the IC50 in assay [2] came out at 39 µM.
Take Ac-DDIVP[Abu] [Compound 122 (Table 1): Ac-Asp-Asp-Ile-Val-Pro-Abu]: in assay [2], the IC50 is 315 µM.
In the case of Ac-D[dV]IVPC [Compound 274 (Table 2): Ac-Asp-D-Val-Ile-Val-Pro(R13 = H)-Cys], the IC50 in assay [3] is 7.6 µM.
Ac-DE[Chg]EEC [Compound 131 (Table 1): Ac-Asp-Glu-Chg-Glu-Glu-Cys]: the IC50 in assay [2] amounted to 24 µM.
As to {HOOC‑CH2CH2‑N(Me)2‑C(O)‑CH2‑CH(cyclohexyl)‑C(O)}-Val-[Pro(4-(1-NpCH2O))]-[Ac3c] [Compound 407 (Table 4): B HOOC-CH2CH2-N(Me)2-C(O)-; R4 cyclohexyl; P3 Val; R13 1-NpCH2O; P1 Acca], the IC50 in assay [1] was 1.5 µM.
{HOOC‑CH2‑N(Me)‑C(O)‑CH2‑CH(cyclohexyl)‑C(O)}-Val-[Pro(4-(1-NpCH2O))]-[Ac3c] [Compound 409 (Table 4): B HOOC-CH2-N(Me)-C(O)-; R4 cyclohexyl; P3 Val; R13 1-NpCH2O; P1 Acca]: in assay [1], the IC50 amounted to 24 µM.
Regarding Ac-DDIV[Pro(O-Bn)][Nva] [Compound 201 (Table 2): Ac-Asp-Asp-Ile-Val-Pro(O-Bn)-Nva], the IC50 in assay [3] came to 7.2 µM.
As for Ac-D[Tle]IVPC [Compound 108 (Table 1): Ac-Asp-Tbg-Ile-Val-Pro-Cys], in assay [2], the IC50 worked out at 31 µM.

B2: Compound 223 (Table 2): B-Ile-Val-Pro(1-NpCH2O)-Nva, B drawn (peptide)
peptide: {code B}-IV[Pro(4-(1-NpCH2O))][Nva]
modifications: reading uncertain; also: further groups not given here, printed as B-Ile-Val-Pro(1-NpCH2O)-Nva
In the case of B2, the IC50 in assay [3] worked out at 51 µM.
Consider Glutaryl-IV[Pro(4-(1-NpCH2O))][Nva] [Compound 222 (Table 2): DAE-Ile-Val-Pro(1-NpCH2O)-Nva], for which the IC50 in assay [3] was 20 µM.
Consider {(HOOC-(CH2)2)2‑NC(O)‑CH2‑CH(cyclohexyl)‑C(O)}-Val-[Pro(4-(1-NpCH2O))]-[Ac3c] [Compound 413 (Table 4): B [HOOC-(CH2)2]2-NC(O)-; R4 cyclohexyl; P3 Val; R13 1-NpCH2O; P1 Acca], for which, in assay [1], the IC50 amounted to 0.12 µM.
As to Ac-DDIV[Pro(2-NpCH2O)″][Nva] [Compound 208 (Table 2): Ac-Asp-Asp-Ile-Val-Pro(2-NpCH2O)-Nva], the IC50 in assay [3] was determined as 0.71 µM.
As for {(HOOC-CH2)2‑NC(O)‑CH2‑CH(cyclohexyl)‑C(O)}-Val-[Pro(4-(1-NpCH2O))]-[Ac3c] [Compound 412 (Table 4): B [HOOC-CH2]2-NC(O)-; R4 cyclohexyl; P3 Val; R13 1-NpCH2O; P1 Acca], the half-maximal inhibitory concentration (IC50) in assay [1] amounted to 0.8 µM.
For Ac-EDIVPC [Compound 102 (Table 1): Ac-Glu-Asp-Ile-Val-Pro-Cys], the IC50 in assay [2] was determined as 59 µM.
Still for that read-out and setting: the figure for Suc-DIVPC [Compound 103 (Table 1): DAD-Asp-Ile-Val-Pro-Cys] is 26 µM.
Ac-DDIV[Pro(4-(Ph(CH2)3))][Nva] [Compound 230 (Table 2): Ac-Asp-Asp-Ile-Val-Pro(Ph(CH2)3)-Nva]: the IC50 in assay [3] turned out to be 3.3 µM.

B3: Compound 304 (Table 3): Ac-Chg-Val-W-Acc, W drawn (peptide)
peptide: Ac-[Chg]VX[Acc]
modifications: not fully specified (residue 3); printed as Ac-Chg-Val-W-Acc; also: further groups not given here
For the molecule B3, the IC50 in assay [4] is 1.1 µM.
Turning to Ac-DDIVIC [Compound 119 (Table 1): Ac-Asp-Asp-Ile-Val-Ile-Cys], the IC50 in assay [2] is 90 µM.
For the molecule Ac-IVP[Ac3c] (not fully specified (residue 3); printed as Ac-Ile-Val-Pro(1-NpCH2O)-Acca) [Compound 262 (Table 2): Ac-Ile-Val-Pro(1-NpCH2O)-Acca], the IC50 in assay [3] was 40 µM.
Take {MeOOC‑(CH2)2‑N(Me)2‑C(O)‑CH2‑CH(cyclohexyl)‑C(O)}-Val-[Pro(4-(1-NpCH2O))]-[Ac3c] [Compound 408 (Table 4): B MeOOC-(CH2)2-N(Me)2-C(O)-; R4 cyclohexyl; P3 Val; R13 1-NpCH2O; P1 Acca]: the IC50 in assay [1] came to 11 µM.
For the molecule Glutaryl-IVP[Ac3c] (not fully specified (residue 3); printed as DAE-Ile-Val-Pro(1-NpCH2O)-Acca) [Compound 237 (Table 2): DAE-Ile-Val-Pro(1-NpCH2O)-Acca], in assay [3], the IC50 turned out to be 5.5 µM.
With Ac-DDIV[Pro(4-(Ph(CH2)3))][Nva] [Compound 217 (Table 2): Ac-Asp-Asp-Ile-Val-Pro(Ph(CH2)3)-Nva], the IC50 in assay [3] came out at 3 µM.
As to Ac-IVP[Nva] (not fully specified (residue 3); printed as Ac-Ile-Val-Pro(1-NpCH2O)-Nva) [Compound 225 (Table 2): Ac-Ile-Val-Pro(1-NpCH2O)-Nva], the IC50 in assay [3] was found to be 45 µM.
The same measure, in the same setting: the figure for Ac-DDIV[Pro(1-NpCH2O)″][Nva] [Compound 207 (Table 2): Ac-Asp-Asp-Ile-Val-Pro(1-NpCH2O)-Nva] is 0.39 µM.
Ac-DD[Tle]VPC [Compound 111 (Table 1): Ac-Asp-Asp-Tbg-Val-Pro-Cys]: the IC50 in assay [2] came to 79 µM.
On the same count and under the same terms, the figure for Ac-D[dD]IVPC [Compound 104 (Table 1): Ac-Asp-D-Asp-Ile-Val-Pro-Cys] is 8.5 µM.
As for Ac-[Chg]VPC (not fully specified (residue 3); printed as Ac-Chg-Val-Pro(O-Bn)-Cys) [Compound 261 (Table 2): Ac-Chg-Val-Pro(O-Bn)-Cys], the IC50 in assay [3] turned out to be 28 µM.
Take Ac-DDIVP[Ac3c] [Compound 126 (Table 1): Ac-Asp-Asp-Ile-Val-Pro-Acca]: the IC50 in assay [2] was 45 µM.
With {MeOOC‑CH2‑CH2‑N(Me)c(O)‑CH2‑CH(cyclohexyl)‑C(O)}-Val-[Pro(4-(1-NpCH2O))]-[Ac3c] [Compound 406 (Table 4): B MeOOC-CH2-CH2-N(Me)c(O)-; R4 cyclohexyl; P3 Val; R13 1-NpCH2O; P1 Acca], the IC50 in assay [1] amounted to 25 µM.
For the molecule Ac-DIV[Pro(4-(1-NpCH2O))][Nva] [Compound 219 (Table 2): Ac-Asp-Ile-Val-Pro(1-NpCH2O)-Nva], the IC50 in assay [3] is 2.3 µM.
Still for that read-out and setting: in the case of Ac-DDIV[Pro((4-tert-butyl-phenyl)-methoxy)][Nva] [Compound 209 (Table 2): Ac-Asp-Asp-Ile-Val-Pro((4-tert-butyl-phenyl)-methoxy)-Nva] it was 2.6 µM; in that of Ac-DDIV[Pro(Bn)][Nva] [Compound 216 (Table 2): Ac-Asp-Asp-Ile-Val-Pro(Bn)-Nva], 60 µM.
With Ac-DDIVPC [Compound 101 (Table 1): Ac-Asp-Asp-Ile-Val-Pro-Cys], the IC50 in assay [2] is 46 µM.
The same measure, in the same setting: in the case of Suc-DIVP[Nva] [Compound 130 (Table 1): DAD-Asp-Ile-Val-Pro-Nva] it was 123 µM.
Turning to {(HOOC-(CH2)2)2‑NH‑CH2‑CH2‑CH(cyclohexyl)‑C(O)}-Val-[Pro(4-(1-NpCH2O))]-[Ac3c] [Compound 411 (Table 4): B [HOOC-(CH2)2]2-NH-CH2-; R4 cyclohexyl; P3 Val; R13 1-NpCH2O; P1 Acca], in assay [1], the IC50 came to 0.36 µM.
Take Ac-DDIVP[Nva] [Compound 273 (Table 2): Ac-Asp-Asp-Ile-Val-Pro(R13 = H)-Nva]: in assay [3], the IC50 was 17.5 µM.
In the case of Ac-D[dE]IVPC [Compound 105 (Table 1): Ac-Asp-D-Glu-Ile-Val-Pro-Cys], in assay [2], the IC50 was 1.5 µM.
